How the values were obtained:
[1] = test system: Arabidopsis thaliana T1 plants; assay: Mesotrione tolerance of transgenic Arabidopsis thaliana T1 plants (spray, bleached leaf area grade, damage score); format: in vivo; parameters: Scores: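 damage score 0-100 computed as Σ(N×S)/(T×M)×100 over grades 0-3 with higher meaning more damage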; settings: Table 12; for Classification and statistics of the grade of pesticide damage Grade 0: number of plants at grade 0; for Classification and statistics of the grade of pesticide damage Grade 1: number of plants at grade 1; for Classification and statistics of the grade of pesticide damage Grade 2: number of plants at grade 2; for Classification and statistics of the grade of pesticide damage Grade 3: number of plants at grade 3; for Scores: pesticide damage score
Description: (§1) T1 transformants were initially selected from the untransformed seeds using a glufosinate selection scheme. The Arabidopsis thaliana T1 plants (AsHPPD-02) into which the AsHPPD-02 nucleotide sequence was introduced, the Arabidopsis thaliana T1 plants (AsHPPDm-F372A-02) into which the AsHPPDm-F372A-02 nucleotide sequence was introduced, the Arabidopsis thaliana T1 plants (AsHPPDm-F383W-02) into which the AsHPPDm-F383W-02 nucleotide sequence was introduced, the Arabidopsis thaliana T1 plants (AsHPPDm-F372A-F383W-02) into which the AsHPPDm-F372A-F383W-02 nucleotide sequence was introduced, the Arabidopsis thaliana T1 plants (DBN11726N) into which the control recombinant expression vector DBN11726N was introduced, and the wild-type Arabidopsis thaliana plants (CK) (18 days after sowing) were sprayed respectively with topramezone at three concentrations (100 g ai/ha (four-fold field concentration, 4×), 200 g ai/ha (eight-fold field concentration, 8×), and 0 g ai/ha (water, 0×)), isoxaflutole at three concentrations (140 g ai/ha (two-fold field concentration, 2×), 280 g ai/ha (four-fold field concentration, 4×), and 0 g ai/ha (water, 0×)), and mesotrione at three concentrations (210 g ai/ha (two-fold field concentration, […]), 420 g ai/ha (four-fold field concentration, 4×), and 0 g ai/ha (water, 0×)), to determine the tolerance of Arabidopsis thaliana to the herbicides. The degree of damage caused by the herbicide was measured for each plant according to the proportion of bleached leaf area (the proportion of bleached leaf area=bleached leaf area/total leaf area×100%) 7 days after spraying (7 DAT): the case where there is basically no bleached phenotype is defined as grade 0, the case where the proportion of bleached leaf area is less than 50% is defined as grade 1, the case where the proportion of bleached leaf area is more than 50% is defined as grade 2, and the case where the proportion of bleached leaf area is 100% grade is defined as grade 3.
(§2) According to the method as described above in point 6 of Example 1, the aforementioned Arabidopsis thaliana T1 plants and wild-type Arabidopsis thaliana plants (CK) (18 days after sowing) were sprayed respectively with topramezone at three concentrations (25 g ai/ha (one-fold field concentration, 1×). 100 g ai/ha (four-fold field concentration, 4×), and 0 g ai/ha (water, 0×)), isoxaflutole at three concentrations (35 g ai/ha (half-fold field concentration, 0.5×). 70 g ai/ha (one-fold field concentration, 1×), and 0 g ai/ha (water, 0×)), and mesotrione at three concentrations (52.5 g ai/ha (half-fold field concentration, 0.5×), 105 g ai/ha (one-fold field concentration, 1×), and 0 g ai/ha (water, 0×)) to detect the tolerance of Arabidopsis thaliana to the herbicides.
(§3) According to the method as described above in point 6 of Example 1, the aforementioned Arabidopsis thaliana T1 plants and wild-type Arabidopsis thaliana plants (CK) (18 days after sowing) were sprayed with topramezone at three different concentrations (i.e., 100 g ai/ha (four-fold field concentration, 4×), 200 g ai/ha (eight-fold field concentration, 8×) and 0 g ai/ha (water, 0×)), isoxaflutole at three different concentrations (i.e., 140 g ai/ha (two-fold field concentration, 2×), 280 g ai/ha (four-fold field concentration, 4×) and 0 g ai/ha (water, 0×)), and mesotrione at three different concentrations (i.e., 210 g ai/ha (two-fold field concentration, 2×), 420 g ai/ha (four-fold field concentration, 4×) and 0 g ai/ha (water, 0×)) respectively to detect the herbicide tolerance of Arabidopsis thaliana. […]

[2] = test system: Arabidopsis thaliana T1 plants; assay: Isoxaflutole tolerance of transgenic Arabidopsis thaliana T1 plants (spray, bleached leaf area grade, damage score); format: in vivo; settings: Table 11; for Classification and statistics of the grade of pesticide damage Grade 0: number of plants at grade 0; for Classification and statistics of the grade of pesticide damage Grade 1: number of plants at grade 1; for Classification and statistics of the grade of pesticide damage Grade 2: number of plants at grade 2; for Classification and statistics of the grade of pesticide damage Grade 3: number of plants at grade 3; for Scores: pesticide damage score;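 for Scores: Weighted damage index from 0 to 100 where higher means more damage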
Description: as §1, §2, §3

B1: AsHPPDm-A107-F372A-02: nucleotide sequence encoding Avena sativa HPPD with A107 deletion+F372A; vector DBN11778 (nucleic acid)
DNA: ATGCCACCTACTCCAGCTACAGCTACTGGTGCTGCTGCTGCTGCCGTTACTCCTGAGCACGCTGCCAGGTCATTCCCCAGGGTGGTTCGCGTGAACCCCAGATCTGATAGGTTCCCAGTTCTGAGCTTCCACCATGTTGAGCTGTGGTGCGCTGATGCTGCTTCTGCTGCTGGCAGGTTCTCTTTCGCTCTTGGTGCTCCACTCGCTGCTAGATCTGATCTGTCTACAGGAAATAGCGCTCATGCCTCACTCCTGCTTCGCTCAGGTGCTTTGGCCTTCCTCTTCACCGCTCCATATGCTCCCCCACCTCAGGAGGCTACTGCTGCTGCTACAGCCTCCATTCCAAGCTTCTCAGCTGATGCCGCTAGAACCTTCGCTGCTGCTCATGGACTTGCCGTGAGGTCTGTTGGTGTTCGCGTGGCTGATGCTGCTGAGGCTTTCAGAGTTTCCGTTGCCGGCGGAGCTAGGCCAGCTTTCGCTCCTGCTGATTTGGGACATGGTTTCGGCCTGGCTGAGGTTGAGCTTTACGGTGACGTGGTTCTCCGCTTCGTGTCTTACCCAGATGAGACTGACCTGCCTTTCCTTCCCGGCTTCGAGAGAGTTTCCTCTCCTGGTGCCGTGGATTACGGCCTGACAAGGTTCGACCACGTGGTTGGAAACGTTCCCGAGATGGCTCCAGTGATCGATTACATGAAGGGCTTCCTTGGATTCCATGAGTTCGCCGAGTTCACTGCTGAGGACGTGGGAACCACTGAGTCCGGTTTGAACTCTGTGGTTCTCGCCAACAATTCTGAGGCTGTTTTGCTCCCTCTGAATGAGCCTGTGCATGGAACCAAGAGGAGAAGCCAGATTCAAACTTACCTGGAGTACCACGGTGGCCCTGGAGTTCAGCATATCGCCCTTGCTTCTAATGATGTGTTGCGCACACTCAGAGAGATGCGCGCCAGAACCCCCATGGGAGGTTTCGAGTTCATGGCCCCACCACAGGCTAAGTACTACGAGGGCGTTAGAAGGATTGCTGGAGACGTGTTGAGCGAGGAGCAGATCAAGGAGTGCCAAGAGCTGGGTGTTCTTGTGGATAGGGATGACCAGGGCGTTCTGCTTCAAATTGCCACTAAGCCAGTGGGCGACCGCCCTACATTCTTCCTTGAGATGATTCAAAGAATCGGCTGCATGGAGAAGGATGAGGTTGGACAGGAGTACCAAAAGGGCGGATGCGGTGGCTTCGGAAAGGGTAACTTCAGCGAGTTGTTCAAGTCAATCGAGGACTACGAGAAGAGCCTCGAGGTGAAGCAGTCAGTGGTTGCCCAAAAGTCCTGA
modifications: AsHPPDm-A107-F372A-02 Nucleotide Sequence
notes: vector DBN11778
Resistance evaluation ([1]; mesotrione 210 g ai/ha (2×)): Moderately | Classification and statistics of the grade of pesticide damage Grade 0 ([1]; mesotrione 210 g ai/ha (2×)): 6 | Classification and statistics of the grade of pesticide damage Grade 1 ([1]; mesotrione 210 g ai/ha (2×)): 7 | Classification and statistics of the grade of pesticide damage Grade 2 ([1]; mesotrione 210 g ai/ha (2×)): 1 | Classification and statistics of the grade of pesticide damage Grade 3 ([1]; mesotrione 210 g ai/ha (2×)): 2 | Scores ([1]; mesotrione 210 g ai/ha (2×)): 31 | Resistance evaluation ([1]; mesotrione 420 g ai/ha (4×)): Poorly resistant | Classification and statistics of the grade of pesticide damage Grade 0 ([1]; mesotrione 420 g ai/ha (4×)): 1 | Classification and statistics of the grade of pesticide damage Grade 1 ([1]; mesotrione 420 g ai/ha (4×)): 7 | Classification and statistics of the grade of pesticide damage Grade 2 ([1]; mesotrione 420 g ai/ha (4×)): 8 | Classification and statistics of the grade of pesticide damage Grade 3 ([1]; mesotrione 420 g ai/ha (4×)): 0 | Scores ([1]; mesotrione 420 g ai/ha (4×)): 48 | Resistance evaluation ([2]; isoxaflutole 140 g ai/ha (2×)): Moderately | Classification and statistics of the grade of pesticide damage Grade 0 ([2]; isoxaflutole 140 g ai/ha (2×)): 5 | Classification and statistics of the grade of pesticide damage Grade 1 ([2]; isoxaflutole 140 g ai/ha (2×)): 7 | Classification and statistics of the grade of pesticide damage Grade 2 ([2]; isoxaflutole 140 g ai/ha (2×)): 4 | Classification and statistics of the grade of pesticide damage Grade 3 ([2]; isoxaflutole 140 g ai/ha (2×)): 0 | Scores ([2]; isoxaflutole 140 g ai/ha (2×)): 31 | Resistance evaluation ([2]; isoxaflutole 280 g ai/ha (4×)): Poorly resistant | Classification and statistics of the grade of pesticide damage Grade 0 ([2]; isoxaflutole 280 g ai/ha (4×)): 0 | Classification and statistics of the grade of pesticide damage Grade 1 ([2]; isoxaflutole 280 g ai/ha (4×)): 1 | Classification and statistics of the grade of pesticide damage Grade 2 ([2]; isoxaflutole 280 g ai/ha (4×)): 15 | Classification and statistics of the grade of pesticide damage Grade 3 ([2]; isoxaflutole 280 g ai/ha (4×)): 0 | Scores ([2]; isoxaflutole 280 g ai/ha (4×)): 65

Source: patent US20250043302A1, “MUTATED HYDROXYPHENYLPYRUVATE DIOXYGENASE POLYPEPTIDE, AND CODING GENE AND USE THEREOF” (BEIJING DABEINONG BIOTECHNOLOGY CO., LTD., priority 2021, published 2025)
